Assay results from article PMC8018910.
pKd: −log10 of the molar value.

What was measured:
Human IL-18 (human) [1] = target: Human IL-18 (human) (UniProt Q14116)
Human IL-18 (human) [2] = target: Human IL-18 (human) (UniProt Q14116); conditions: cited from earlier work

Chain of Human IL-18 (human) (Q14116 37-193): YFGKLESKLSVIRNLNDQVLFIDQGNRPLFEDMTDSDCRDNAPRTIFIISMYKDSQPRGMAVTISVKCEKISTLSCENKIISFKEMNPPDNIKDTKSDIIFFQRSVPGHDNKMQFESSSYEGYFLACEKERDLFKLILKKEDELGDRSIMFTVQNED
Chain of Clinical-grade recombinant human IL-18BP (O95998 31-194): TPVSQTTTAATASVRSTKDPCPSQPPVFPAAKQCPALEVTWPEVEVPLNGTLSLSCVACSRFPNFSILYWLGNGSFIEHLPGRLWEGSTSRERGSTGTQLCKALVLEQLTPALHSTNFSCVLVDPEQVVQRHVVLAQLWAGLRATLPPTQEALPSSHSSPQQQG
Chain of IL-18BP (O95998 31-194): as above

Row | reduction of IL-12/IL-18-induced IFNγ production in human PBMC cultures by IL-18BP (24 h) (Human IL-18 (human) [1]) [%] | reduction of IL-12/IL-18-induced IL-6 release in human PBMC cultures by IL-18BP (24 h) (Human IL-18 (human) [1]) [%] | Substance | pKd (Human IL-18 (human) [2])
1 | 95 | 85 | Clinical-grade recombinant human IL-18BP (from UniProt O95998 31-194) (natural protein) | 
2 |  |  | IL-18BP (from UniProt O95998) | 9.30
